# Data taken from the supplement of paper PMC12042874.
# ± gives the uncertainty stated by the source.
# Assay: amyloid nucleation score (Sup35N fusion, yeast selection) (log enrichment); library NNK3; higher = more nucleation; inactive = no reads after selection
# Outline: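 The nucleation score is the DiMSum log enrichment of output over input reads, centred on the mode score of non-aggregating sequences. Only sequences with 100 or more input reads were scored, using Illumina sequencing of input and output plasmid inserts. Psi-negative yeast expressing Sup35N fused to peptides of 20 random codons were induced 24 hours with 100 μM copper sulfate and grown 7 days at 30°C on medium lacking adenine and uracil.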
row,Substance,amyloid nucleation score
1,RDPDGRIYMYGLDVIQYVTN,inactive
2,RDRLKVLLLIFHSRDDTRTK,inactive
3,RDRLVWDRCRTVAPSTGVVR,inactive
4,RDSRRETKTNIWIVRYTLW,inactive
5,RDVIRRVVRMHLQLYMFMVG,-0.135 ± 0.98
6,RDVVCRRMRTRVLSSHAPPR,inactive
7,REASVECH,inactive
8,REGSDHRFMICETFYFE,inactive
9,REKLDQP,inactive
10,REKTWFCSFIVTLGVCGWDG,inactive
11,RELRF,inactive
12,RERIYAELFSSWRRSAKGIF,inactive
13,REYSEA,inactive
14,RFCRSSWMYPVEGQVGHIRE,inactive
15,RFGALVTLVFVCYHWNRPTA,0.753 ± 0.16
16,RFGYKLFRSSVYGRGESYDY,inactive
17,RFISEYCMFENKEMVEPSFG,inactive
18,RFIVANHLGGVYLQE,inactive
19,RFLLHLML,-0.4 ± 0.45
20,RFQFIEFSSTVSSGGWTFFI,-0.165 ± 0.39
21,RFSFVTRFRYREQLPLVR,0.068 ± 0.82
22,RFTCKYLPTLLTGVIRGPSP,inactive
23,RFTYGDRCMKMRMPNFETAH,inactive
24,RFVAHG,inactive
25,RFWLDYEGRNAYWMGITHVW,inactive
26,RFWLLRRVVWEME,inactive
27,RFWSMRALR,inactive

row,Substance,amyloid nucleation score
1,RGAFSPVVWSDRMELLGRWL,inactive
2,RGFFMVWLMNCLMRFRISDF,inactive
3,RGFLVRWAPFCLGFGSTLND,inactive
4,RGIPDLVIY,inactive
5,RGKFHRVA,inactive
6,RGLQELLWI,-0.999 ± 1.9
7,RGNATGSIKD,inactive
8,RGQCVPDAGQVRNGTCMRV,inactive
9,RGQFYLLVARLNSKM,inactive
10,RGSCEFSSLECDTWSNRPSD,inactive
11,RGSDIMAFAVDYTDNKSECS,inactive
12,RGVNKRKADVTRGCYSVVLN,inactive
13,RGVYNEHFCCGFSMWEPING,2.3 ± 0.067
14,RGWDVWAVHSEFYCLKKLIV,inactive
15,RHAPNVLKYLAHFNDYRQWH,inactive
16,RHNISFT,inactive
17,RHNVRCYCLGLMPNAPVDKL,inactive
18,RHRLAHMRNKWRGQVHCPKG,inactive
19,RHSFMRFRLSNWV,inactive
20,RHYLLCYIKRHTRLQIYKFS,inactive
21,RIFRCVEIA,inactive
22,RIITLNRHIRRVFRMGCRSM,inactive
23,RILFDAARRIRWTVMCTKSC,inactive
24,RIMLVYCMGSRGIAMFCQHN,inactive
25,RINESRLYLSEVKYGLTCVR,inactive
26,RIQCIRLDHFSLSLFYFFTA,0.636 ± 0.21
27,RIRMSCYLIVYIGIACGYIS,inactive

row,Substance,amyloid nucleation score
1,RIVGRLVSRALWWV,inactive
2,RKAGR,inactive
3,RKDYGMLYFFLSSRKCTHAI,inactive
4,RKGNGMHKNSYSTARMYCGF,inactive
5,RKILVVFLSWFNFKVYSNSM,inactive
6,RKKESYSN,inactive
7,RKLWLMCYS,inactive
8,RKNLWLVTTGNSARDMLSKM,inactive
9,RKYTKCSFRKKSWCPSPFEL,inactive
10,RLANKFSMTSGT,inactive
11,RLFFGYCRMDVIFAPYISCV,inactive
12,RLHLAPTNCREVNWPTLWLA,-0.565 ± 1.8
13,RLHLRKYFFETAHWICMNDG,inactive
14,RLKRYLHSMTHRRMRERYCY,inactive
15,RLLLMSRSLMIRFVLSLVLE,inactive
16,RLLRVGFMLRFLIMIRRVRF,-0.365 ± 1
17,RLLVGFIWSWLGISYFTRFL,inactive
18,RLMNFVPSFVFCCFYKK,1.27 ± 0.14
19,RLNTMCYSSALASS,inactive
20,RLNYWMTDDGCGRSCDTRVE,inactive
21,RLRQTATCIRFVFAGNVLAN,0.018 ± 1.2
22,RLSGSEKVELM,inactive
23,RLSYQYFCQAMRMEGEFWSY,-0.16 ± 0.33
24,RLTYIVCSA,inactive
25,RLVWGCCLLDTCVVEQGSGV,2.78 ± 0.076
